Laboratory results published in US20250154198A1, “PEPTIDE INHIBITORS OF INTERLEUKIN-23 RECEPTOR” (Zealand Pharma A/S, priority 2021, published 2025).
Like-named read-outs stand apart in the source and are kept apart here. *1 amine or outer side, *2 acyl side, *3 side chain or, on linkers, in order; H or OH if unused. Bridges are numbered along the chain shown (N, C = ends). [ ]: non-standard residue; d: D form. 1,3‑dibromopropan‑2‑one = linker (CAS 816-39-7) joining two Cys as 1,3-dithio-propan-2-one bridge -SCH2C(=O)CH2S-; 2Nal = N[C@@H](Cc1ccc2ccccc2c1)C(=O)O; AEF = NCCOc1ccc(C[C@H](N)C(=O)O)cc1; CH2COCH2 = O=C(C[*:1])C[*:2]; 3Amb = NCc1cccc(C(=O)O)c1

What was measured:
[1] = molecular target: T1, human IL-23R endogenously expressed on DB cells (CRL-2289) (human, UniProt Q5VWK5 24-629); experiment: cell-based or functional assay
T1 sequence (looked up): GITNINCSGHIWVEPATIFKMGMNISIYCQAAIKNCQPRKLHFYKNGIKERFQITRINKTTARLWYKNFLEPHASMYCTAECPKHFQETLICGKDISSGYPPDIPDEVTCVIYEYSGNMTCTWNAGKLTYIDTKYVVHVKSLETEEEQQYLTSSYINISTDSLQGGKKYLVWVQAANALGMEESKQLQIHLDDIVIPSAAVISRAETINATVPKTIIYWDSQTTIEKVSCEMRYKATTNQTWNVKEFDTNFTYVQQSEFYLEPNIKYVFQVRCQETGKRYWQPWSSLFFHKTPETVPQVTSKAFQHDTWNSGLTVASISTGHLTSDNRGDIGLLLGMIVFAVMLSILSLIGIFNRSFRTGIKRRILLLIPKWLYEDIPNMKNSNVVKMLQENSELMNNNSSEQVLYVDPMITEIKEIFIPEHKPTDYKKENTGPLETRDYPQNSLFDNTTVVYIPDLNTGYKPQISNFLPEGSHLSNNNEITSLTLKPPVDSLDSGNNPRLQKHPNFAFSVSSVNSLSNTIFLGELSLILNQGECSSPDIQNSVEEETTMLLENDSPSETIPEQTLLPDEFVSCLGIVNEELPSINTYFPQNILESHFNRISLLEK

[2] = molecular target: T2, Nluc-IL23R fusion protein (human, UniProt Q5VWK5 22-629); experiment: BRET displacement of TAMRA-labelled peptide, Nluc-IL23R membranes
T2 construct: range 22-629; Stably expressed in HEK293 cells; also called hIL-23R; human IL-23R fused to a Nanoluc luciferase enzyme; not shown: Nanoluc luciferase (Promega N1371 plasmid) at the N-terminus
T2 sequence (looked up): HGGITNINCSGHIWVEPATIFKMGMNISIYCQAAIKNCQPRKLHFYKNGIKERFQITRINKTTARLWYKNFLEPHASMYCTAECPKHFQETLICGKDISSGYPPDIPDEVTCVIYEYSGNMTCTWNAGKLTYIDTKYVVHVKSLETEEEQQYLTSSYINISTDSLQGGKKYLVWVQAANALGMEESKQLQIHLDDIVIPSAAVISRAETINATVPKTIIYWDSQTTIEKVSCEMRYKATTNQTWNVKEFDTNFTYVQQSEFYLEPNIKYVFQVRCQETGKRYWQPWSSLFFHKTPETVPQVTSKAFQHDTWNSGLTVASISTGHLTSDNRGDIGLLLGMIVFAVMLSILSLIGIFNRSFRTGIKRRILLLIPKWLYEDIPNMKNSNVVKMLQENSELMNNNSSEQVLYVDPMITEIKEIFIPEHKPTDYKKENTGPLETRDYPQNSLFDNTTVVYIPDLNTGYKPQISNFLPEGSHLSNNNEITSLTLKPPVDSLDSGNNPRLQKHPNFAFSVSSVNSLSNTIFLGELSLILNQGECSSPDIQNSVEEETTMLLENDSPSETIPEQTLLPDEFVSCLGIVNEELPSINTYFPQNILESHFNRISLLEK

[3] = molecular target: T1, human IL-23R endogenously expressed on …; experiment: cell-based or functional assay; remark: listed apart in the source
[4] = molecular target: T2, Nluc-IL23R fusion protein; experiment: BRET displacement of TAMRA-labelled peptide, Nluc-IL23R membranes; remark: listed apart in the source
Procedure: (§1) The plate was sealed with light impermeable plate seals, and incubated on a orbital shaker 400 rpm for 2 hours at room temperature. To determine the BRET ratio, the plate seal was removed and 25 μL of the Nanoluc substrate (Promega N1572) diluted 1:500 was added to each well and incubated for 1-2 minutes on an orbital shaker at 400 rpm. […] The BRET ratio was calculated as the fluorescence from the TAMRA/nanoluc bioluminescence. The IC₅₀ for each compound was determined by computer-aided curve fitting using a 4-parameter logistic (4PL) non-linear model.

[5] = molecular target: T2, Nluc-IL23R fusion protein; experiment: as above; remark: listed apart in the source
Procedure: as §1

[6] = molecular target: T1, human IL-23R endogenously expressed on …; experiment: cell-based or functional assay; remark: listed apart in the source
[7] = molecular target: T2, Nluc-IL23R fusion protein; experiment: BRET displacement of TAMRA-labelled peptide, Nluc-IL23R membranes; remark: listed apart in the source
Procedure: as §1

[8] = molecular target: T2, Nluc-IL23R fusion protein; experiment: as above; remark: listed apart in the source
[9] = molecular target: T1, human IL-23R endogenously expressed on …; experiment: cell-based or functional assay; remark: listed apart in the source
[10] = molecular target: T1, human IL-23R endogenously expressed on …; experiment: cell-based or functional assay; remark: listed apart in the source
[11] = molecular target: T1, human IL-23R endogenously expressed on …; experiment: cell-based or functional assay; remark: listed apart in the source
[12] = molecular target: T1, human IL-23R endogenously expressed on …; experiment: cell-based or functional assay; remark: listed apart in the source
[13] = molecular target: T1, human IL-23R endogenously expressed on …; experiment: cell-based or functional assay; remark: listed apart in the source
[14] = molecular target: T2, Nluc-IL23R fusion protein; experiment: BRET displacement of TAMRA-labelled peptide, Nluc-IL23R membranes; remark: listed apart in the source
Procedure: as §1

[15] = molecular target: T2, Nluc-IL23R fusion protein; experiment: as above; remark: listed apart in the source
Procedure: as §1

[16] = molecular target: T1, human IL-23R endogenously expressed on …; experiment: cell-based or functional assay; remark: listed apart in the source
[17] = molecular target: T2, Nluc-IL23R fusion protein; experiment: BRET displacement of TAMRA-labelled peptide, Nluc-IL23R membranes; remark: listed apart in the source
Procedure: as §1

[18] = molecular target: T2, Nluc-IL23R fusion protein; experiment: as above; remark: listed apart in the source
Procedure: as §1

[19] = molecular target: T1, human IL-23R endogenously expressed on …; experiment: cell-based or functional assay; remark: listed apart in the source

B1: I4 (isomer 3) (peptide)
peptide: H-ECWLCYYRNCNCM-NH2
modifications: linker 5-10, 2-12 via 1,3‑dibromopropan‑2‑one
notes: Peptide of Heinis et al., 2020, synthesised and tested by the inventors
- IC50 (pSTAT3) [1]: > 1 µM
- Ki [2]: > 1000 nM
- IC50 (pSTAT3) [3]: > 1 µM

B2: Compound 4 (peptide)
peptide: H-DESCWQCWWLKR-NH2
modifications: lactam 2-11; linker 4-7 via 1,3‑dibromopropan‑2‑one
- Ki [4]: 143 nM
- Ki [5]: 143 nM
- IC50 (pSTAT3) [6]: > 1 µM
- Ki [7]: 143 nM
- Ki [8]: 143 nM
- IC50 (pSTAT3) [9]: > 1 µM
- IC50 (pSTAT3) [10]: > 1 µM
- IC50 (pSTAT3) [3]: 847 nM

B3: Compound 17 (peptide)
peptide: Ac-DESCWQCW[2Nal]LKR-NH2
modifications: lactam 2-11; linker 4-7 via CH2COCH2
- Ki [5]: 70.7 nM
- Ki [8]: 70.7 nM
- IC50 (pSTAT3) [10]: 366 nM
- IC50 (pSTAT3) [3]: 366 nM

B4: Compound 19 (peptide)
peptide: DKSCWQCWXLER
HELM: PEPTIDE1{[ac].D.K.S.C.W.Q.C.W.[O=C([C@H](Cc1ccc2ccccc2c1)N[*:1])[*:2]].L.E.R.[am]}|CHEM1{[O=C(C[*:1])C[*:2]]}$PEPTIDE1,PEPTIDE1,3:R3-12:R3|PEPTIDE1,CHEM1,5:R3-1:R1|PEPTIDE1,CHEM1,8:R3-1:R2$$$V2.0
SMILES: CC(=O)N[C@@H](CC(=O)O)C(=O)N[C@H]1CCCCNC(=O)CC[C@@H](C(=O)N[C@@H](CCCNC(=N)N)C(N)=O)NC(=O)[C@H](CC(C)C)NC(=O)[C@H](Cc2ccc3ccccc3c2)NC(=O)[C@H](Cc2c[nH]c3ccccc23)NC(=O)[C@@H]2CSCC(=O)CSC[C@H](NC(=O)[C@H](CO)NC1=O)C(=O)N[C@@H](Cc1c[nH]c3ccccc13)C(=O)N[C@@H](CCC(N)=O)C(=O)N2
- IC50 (pSTAT3) [11]: 32.3 nM
- Ki [8]: 6.33 nM
- IC50 (pSTAT3) [12]: 32.3 nM
- IC50 (pSTAT3) [3]: 33.2 nM

B5: Compound 18 (peptide)
peptide: Ac-KSCWQCW[2Nal]LER-NH2
modifications: lactam 1-10; linker 3-6 via CH2COCH2
- IC50 (pSTAT3) [13]: 17.6 nM
- Ki [14]: 2.85 nM
- Ki [8]: 2.85 nM
- Ki [15]: 2.85 nM
- IC50 (pSTAT3) [12]: 17.6 nM
- IC50 (pSTAT3) [16]: 17.6 nM
- IC50 (pSTAT3) [3]: 17.6 nM
- Ki [17]: 2.85 nM

B6: Compound 37 (peptide)
peptide: [3Amb]SCWQCW[2Nal]LER-NH2
modifications: lactam N-10; linker 3-6 via CH2COCH2
- Ki [18]: 9.86 nM
- Ki [8]: 9.87 nM
- IC50 (pSTAT3) [19]: 44.6 nM
- Ki [15]: 9.86 nM
- IC50 (pSTAT3) [16]: 44.6 nM
- IC50 (pSTAT3) [3]: 44.6 nM

B7: Compound 29 (peptide)
peptide: Ac-KSCWQC[AEF][2Nal]LER-NH2
modifications: lactam 1-10; linker 3-6 via CH2COCH2
SMILES: CC(=O)N[C@H]1CCCCNC(=O)CC[C@@H](C(=O)N[C@@H](CCCNC(=N)N)C(N)=O)NC(=O)[C@H](CC(C)C)NC(=O)[C@H](Cc2ccc3ccccc3c2)NC(=O)[C@H](Cc2ccc(OCCN)cc2)NC(=O)[C@@H]2CSCC(=O)CSC[C@H](NC(=O)[C@H](CO)NC1=O)C(=O)N[C@@H](Cc1c[nH]c3ccccc13)C(=O)N[C@@H](CCC(N)=O)C(=O)N2
- IC50 (pSTAT3) [13]: 19.7 nM
- IC50 (pSTAT3) [3]: 19.7 nM
